Data from patent publication US20210246166A1 (Bayer, published 2021).
Bridge positions count the residues as written; N and C are the ends. Square brackets hold non-standard residues; d marks the D form. Primed or numbered codes have the meaning given here. Ends that are not written are not given here. TTDS(3) = 1,13-Diamino-4,7,10-trioxatridecan-succinamic acid; Pro(3S,4R-methano) = O=C(O)[C@H]1NC[C@@H]2C[C@@H]21; Oic = O=C(O)[C@@H]1C[C@@H]2CCCC[C@@H]2N1; PEG8 = NCCOCCOCCOCCOCCOCCOCCOCCOCCC(=O)O; Pro‑D2 = L-proline (3,4-2H), deuterated; PEG6 = NCCOCCOCCOCCOCCOCCOCCC(=O)O; tBuAla = CC(C)(C)C[C@H](N)C(=O)O; PEG5 = NCCOCCOCCOCCOCCOCCC(=O)O; Pen = CC(C)(S)[C@H](N)C(=O)O; PEG3 = NCCOCCOCCOCCC(=O)O; NMeA = CN[C@@H](C)C(=O)O; Sar = CNCC(=O)O

T1: recombinant rat MASP1 active protease (amino acids 302-704, C-terminal His Tag) (rat, UniProt Q8CHN8 302-704)
T1 sequence: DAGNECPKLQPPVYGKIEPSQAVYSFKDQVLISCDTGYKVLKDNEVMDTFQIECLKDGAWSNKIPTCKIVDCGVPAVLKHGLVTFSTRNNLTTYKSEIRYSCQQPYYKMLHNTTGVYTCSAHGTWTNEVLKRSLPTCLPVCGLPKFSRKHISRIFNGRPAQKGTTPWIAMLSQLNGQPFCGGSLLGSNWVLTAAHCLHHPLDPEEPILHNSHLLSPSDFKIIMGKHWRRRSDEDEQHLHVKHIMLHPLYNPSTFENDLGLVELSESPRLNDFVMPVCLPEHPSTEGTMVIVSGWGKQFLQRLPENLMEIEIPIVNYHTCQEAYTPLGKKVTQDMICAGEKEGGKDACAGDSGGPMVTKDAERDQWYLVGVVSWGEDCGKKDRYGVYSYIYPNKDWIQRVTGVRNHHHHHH


Experiments:
[1] = target: T1, recombinant rat MASP1 active protease …; test: cell-based or functional assay
[2] = target: recombinant rat MASP2 active protease (amino acids 296-685, C-terminal His Tag) (rat, UniProt Q9JJS8 296-685); test: cell-based or functional assay
Chain of recombinant rat MASP2 active protease (amino acids 296-685, C-terminal His Tag) (Q9JJS8 other isoform, or with tags, fused parts or gaps limits assumed): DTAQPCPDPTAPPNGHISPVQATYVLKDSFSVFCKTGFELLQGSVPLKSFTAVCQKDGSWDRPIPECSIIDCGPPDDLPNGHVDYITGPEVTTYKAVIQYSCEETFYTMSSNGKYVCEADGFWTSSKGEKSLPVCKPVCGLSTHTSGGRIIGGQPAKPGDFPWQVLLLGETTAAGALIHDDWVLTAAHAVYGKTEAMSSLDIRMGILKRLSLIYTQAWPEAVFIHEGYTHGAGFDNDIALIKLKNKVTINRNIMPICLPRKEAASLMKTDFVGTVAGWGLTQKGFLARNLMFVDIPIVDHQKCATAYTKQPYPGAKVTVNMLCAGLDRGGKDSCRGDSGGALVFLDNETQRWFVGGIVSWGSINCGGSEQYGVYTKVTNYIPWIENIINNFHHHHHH

| rat MASP1 IC50 [1] | rat MASP2 IC50 [2] | Binder |
| --- | --- | --- |
| 76 nM | 42 nM | [Sar]ICSRSLP[Oic]I[Pen]IP-NH2 (disulfide 3-11; N-terminus assumed; SMILES CC[C@H](C)[C@H](NC(=O)CNC)C(=O)N[C@H]1CSSC(C)(C)[C@@H](C(=O)N[C@H](C(=O)N2CCC[C@H]2C(N)=O)[C@@H](C)CC)NC(=O)[C@H]([C@@H](C)CC)NC(=O)[C@@H]2C[C@@H]3CCCC[C@@H]3N2C(=O)[C@@H]2CCCN2C(=O)[C@H](CC(C)C)NC(=O)[C@H](CO)NC(=O)[C@H](CCCNC(=N)N)NC(=O)[C@H](CO)NC1=O) [Example 109: ((N-Me)G)-IC+SRSLP-(Oic)-I-(Pen)+IP-NH2] |
| 67 nM | 55 nM | [Sar]ICSRSL[Pro(3S,4R-methano)]PI[Pen]IPE-NH2 (disulfide 3-11; N-terminus assumed; SMILES CC[C@H](C)[C@H](NC(=O)CNC)C(=O)N[C@H]1CSSC(C)(C)[C@@H](C(=O)N[C@H](C(=O)N2CCC[C@H]2C(=O)N[C@@H](CCC(=O)O)C(N)=O)[C@@H](C)CC)NC(=O)[C@H]([C@@H](C)CC)NC(=O)[C@@H]2CCCN2C(=O)[C@@H]2[C@H]3C[C@H]3CN2C(=O)[C@H](CC(C)C)NC(=O)[C@H](CO)NC(=O)[C@H](CCCNC(=N)N)NC(=O)[C@H](CO)NC1=O) |
| 140 nM | 95 nM | [Sar]ICSRSLP[Oic]I[Pen]IPD[PEG8]-NH2 (disulfide 3-11; N-terminus assumed; SMILES CC[C@H](C)[C@H](NC(=O)CNC)C(=O)N[C@H]1CSSC(C)(C)[C@@H](C(=O)N[C@H](C(=O)N2CCC[C@H]2C(=O)N[C@@H](CC(=O)O)C(=O)NCCOCCOCCOCCOCCOCCOCCOCCOCCC(N)=O)[C@@H](C)CC)NC(=O)[C@H]([C@@H](C)CC)NC(=O)[C@@H]2C[C@@H]3CCCC[C@@H]3N2C(=O)[C@@H]2CCCN2C(=O)[C@H](CC(C)C)NC(=O)[C@H](CO)NC(=O)[C@H](CCCNC(=N)N)NC(=O)[C@H](CO)NC1=O) [Example 141: ((N-Me)G)-IC+SRSLP-(Oic)-I-(Pen)+IPD-(PEG8(28 atoms))-NH2] |
| 36 nM | 68 nM | [Sar]ICSRSLP[Oic]I[Pen]IPD-OH (disulfide 3-11; N-terminus assumed; SMILES CC[C@H](C)[C@H](NC(=O)CNC)C(=O)N[C@H]1CSSC(C)(C)[C@@H](C(=O)N[C@H](C(=O)N2CCC[C@H]2C(=O)N[C@@H](CC(=O)O)C(=O)O)[C@@H](C)CC)NC(=O)[C@H]([C@@H](C)CC)NC(=O)[C@@H]2C[C@@H]3CCCC[C@@H]3N2C(=O)[C@@H]2CCCN2C(=O)[C@H](CC(C)C)NC(=O)[C@H](CO)NC(=O)[C@H](CCCNC(=N)N)NC(=O)[C@H](CO)NC1=O) [Example 88: ((N-Me)G)-IC+SRSLP-(Oic)-I-(Pen)+IPD-OH] |
| 65 nM | 27 nM | [Sar]ICSRS[tBuAla]PPI[Pen]IP-{PEG5‑CH2CO2H (18 atoms)-NH2} (disulfide 3-11) [Example 55: ((N-Me)G)-IC+SRS-((tBu)A)-PPI-(Pen)+IP-(PEG5-CH2CO2H (18 atoms))-NH2] |
| 100 nM | 50 nM | [Sar]ICSRSLP[Oic]I[Pen]IP[PEG6]-NH2 (disulfide 3-11; N-terminus assumed; SMILES CC[C@H](C)[C@H](NC(=O)CNC)C(=O)N[C@H]1CSSC(C)(C)[C@@H](C(=O)N[C@H](C(=O)N2CCC[C@H]2C(=O)NCCOCCOCCOCCOCCOCCOCCC(N)=O)[C@@H](C)CC)NC(=O)[C@H]([C@@H](C)CC)NC(=O)[C@@H]2C[C@@H]3CCCC[C@@H]3N2C(=O)[C@@H]2CCCN2C(=O)[C@H](CC(C)C)NC(=O)[C@H](CO)NC(=O)[C@H](CCCNC(=N)N)NC(=O)[C@H](CO)NC1=O) [Example 140: ((N-Me)G)-IC+SRSLP-(Oic)-I-(Pen)+IP-(PEG5(22 atoms))-NH2] |
| 43 nM | 27 nM | [Sar]ICSRS[tBuAla]PPI[Pen]IP-{PEG3-NH2} (disulfide 3-11) [Example 72: ((N-Me)G)-IC+SRS-((tBu)A)-PPI-(Pen)+IP-(PEG2(13 atoms))-NH2] |
| 72 nM | 36 nM | [Sar]ICSRSLP[Oic]I[Pen]IP-NH2 (disulfide 3-11; also: HCl salt) [Example 67: ((N-Me)G)-IC+SRSLP-(Oic)-I-(Pen)+IP-NH2 (HCl salt)] |
| 110 nM | 68 nM | [Sar]ICSRSLP[Oic]I[Pen]IPD[PEG6]-NH2 (disulfide 3-11; N-terminus assumed; SMILES CC[C@H](C)[C@H](NC(=O)CNC)C(=O)N[C@H]1CSSC(C)(C)[C@@H](C(=O)N[C@H](C(=O)N2CCC[C@H]2C(=O)N[C@@H](CC(=O)O)C(=O)NCCOCCOCCOCCOCCOCCOCCC(N)=O)[C@@H](C)CC)NC(=O)[C@H]([C@@H](C)CC)NC(=O)[C@@H]2C[C@@H]3CCCC[C@@H]3N2C(=O)[C@@H]2CCCN2C(=O)[C@H](CC(C)C)NC(=O)[C@H](CO)NC(=O)[C@H](CCCNC(=N)N)NC(=O)[C@H](CO)NC1=O) [Example 146: ((N-Me)G)-IC+SRSLP-(Oic)-I-(Pen)+IPD-(PEG5(22 atoms))-NH2] |
| 160 nM | 48 nM | VICSRS[tBuAla]PPI[Pen]IPD-NH2 (disulfide 3-11; N-terminus assumed; SMILES CC[C@H](C)[C@H](NC(=O)[C@@H](N)C(C)C)C(=O)N[C@H]1CSSC(C)(C)[C@@H](C(=O)N[C@H](C(=O)N2CCC[C@H]2C(=O)N[C@@H](CC(=O)O)C(N)=O)[C@@H](C)CC)NC(=O)[C@H]([C@@H](C)CC)NC(=O)[C@@H]2CCCN2C(=O)[C@@H]2CCCN2C(=O)[C@H](CC(C)(C)C)NC(=O)[C@H](CO)NC(=O)[C@H](CCCNC(=N)N)NC(=O)[C@H](CO)NC1=O) [Example 54: VIC+SRS-((tBu)A)-PPI-(Pen)+IPD-NH2] |
| 120 nM | 51 nM | [Sar]ICSRSLP[Oic]I[Pen]IP-{PEG5-NH2} (disulfide 3-11) [Example 97: ((N-Me)G)-IC+SRSLP-(Oic)-I-(Pen)+IP-(PEG4(19 atoms))-NH2] |
| 120 nM | 48 nM | [Sar]ICSRSLP[Oic]I[Pen]IP-{PEG5‑CH2CO2H (18 atoms)-NH2} (disulfide 3-11) [Example 83: ((N-Me)G)-IC+SRSLP-(Oic)-I-(Pen)+IP-(PEG5-CH2CO2H (18 atoms))-NH2] |
| 75 nM | 37 nM | [Sar]ICSRS[tBuAla]PPI[Pen]IP-{TTDS(3)-NH2} (disulfide 3-11) [Example 85: ((N-Me)G)-IC+SRS-((tBu)A)-PPI-(Pen)+IP-(TTDS)-NH2] |
| 11 nM | 10 nM | [NMeA]ICSRS[tBuAla]PPI[Pen]IP-NH2 (disulfide 3-11; N-terminus assumed; SMILES CC[C@H](C)[C@H](NC(=O)[C@H](C)NC)C(=O)N[C@H]1CSSC(C)(C)[C@@H](C(=O)N[C@H](C(=O)N2CCC[C@H]2C(N)=O)[C@@H](C)CC)NC(=O)[C@H]([C@@H](C)CC)NC(=O)[C@@H]2CCCN2C(=O)[C@@H]2CCCN2C(=O)[C@H](CC(C)(C)C)NC(=O)[C@H](CO)NC(=O)[C@H](CCCNC(=N)N)NC(=O)[C@H](CO)NC1=O) [Example 126: ((N-Me)A)-IC+SRS-((tBu)A)-PPI-(Pen)+IP-NH2] |
| 10.9 nM | 17.1 nM | AICSRSL[Pro‑D2][Oic]I[Pen]IPD-OH (disulfide 3-11) [Example 142: AIC+SRSL-(Pro-D2)-(Oic)-I-(Pen)+IPD-OH] |
